Patent US20060288448
Changes are numbered by the printed parent chain.

What was measured:
[1] = system: T1, Cry8Bb1-ISC-1 88 kDa polypeptide
T1 sequence: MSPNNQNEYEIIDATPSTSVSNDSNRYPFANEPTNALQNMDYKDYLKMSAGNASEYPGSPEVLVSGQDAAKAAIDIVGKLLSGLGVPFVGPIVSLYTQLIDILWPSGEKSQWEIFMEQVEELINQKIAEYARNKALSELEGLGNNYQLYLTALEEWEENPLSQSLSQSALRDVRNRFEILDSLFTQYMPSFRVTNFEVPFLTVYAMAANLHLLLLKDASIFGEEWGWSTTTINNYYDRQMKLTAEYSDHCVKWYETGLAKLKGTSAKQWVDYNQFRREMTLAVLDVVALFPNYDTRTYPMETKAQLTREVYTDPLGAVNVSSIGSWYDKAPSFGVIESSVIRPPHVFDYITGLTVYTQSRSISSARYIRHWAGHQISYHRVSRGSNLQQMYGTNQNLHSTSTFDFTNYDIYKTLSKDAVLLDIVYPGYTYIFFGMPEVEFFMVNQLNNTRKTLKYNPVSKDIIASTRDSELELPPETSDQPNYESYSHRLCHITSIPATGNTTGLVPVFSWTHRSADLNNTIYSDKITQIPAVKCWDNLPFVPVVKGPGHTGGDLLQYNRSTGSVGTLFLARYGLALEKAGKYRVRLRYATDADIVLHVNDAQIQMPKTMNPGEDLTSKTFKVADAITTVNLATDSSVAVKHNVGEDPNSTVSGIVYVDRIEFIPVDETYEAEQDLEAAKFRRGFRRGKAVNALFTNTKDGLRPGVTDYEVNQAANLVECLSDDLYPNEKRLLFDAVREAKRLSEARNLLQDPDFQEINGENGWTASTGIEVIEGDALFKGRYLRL

[2] = system: T2, Cry8Bb1-K05 88 kDa polypeptide
T2 sequence: T1 sequence with L161F, S162R, Q163R, S164G, L165F, S166R, Q167R, S168G

Substance	proteolytic digestion for 72 h (SDS-PAGE) [1]	proteolytic digestion for 72 h (SDS-PAGE, N-terminal sequencing) [2]
chymotrypsin	the 88 kDa Cry8Bb1-ISC-1 polypeptide was not cleaved within the activation loop to generate the 55 kDa polypeptide	Cry8Bb1-K05 was cleaved within the loop between helix 3 and 4 of domain I of the toxin molecule to generate a 55 kDa polypeptide
trypsin	the 88 kDa Cry8Bb1-ISC-1 polypeptide was not cleaved within the activation loop to generate the 55 kDa polypeptide	Cry8Bb1-K05 was cleaved within the loop between helix 3 and 4 of domain I of the toxin molecule to generate a 55 kDa polypeptide
